Data: IntAct's records for PubMed 25203555

B1: Uncharacterized protein C1322.02 (Schizosaccharomyces pombe (strain ATCC 38366 / 972)), O94542 (parent)
chain: MIESKGETAPSLNLNDVNVEENDAAQSFAEKVQRFRYQMKVHAAPRQKTLHSFLKKDNANIHDFTKVEKPHIRSSKSKVSYNSITSRVTKYFEEKNNSVDQLHSESLTPLSFGHTIPKKKPLLMTASVSEDSRVRVSKRQFKSKVVHPEIAISIAKRHKPKFPLSDELMNVEPGFHHSNIGCQITPYLWISSFRTNVYYLIGNEGDLLSQQVPSISGELNMLRGVCTRIDDDNRYDIEQAGSCFGMSVFPTSDSGEESFTTLESDPIVNCEHDEKKVADNLLVPQVMCSSNISTFFRSPGGKKLYHYLWKNSNALRISSNDLLEILLKHGVYVSLDTLHSWLQERNVNFEK
partner: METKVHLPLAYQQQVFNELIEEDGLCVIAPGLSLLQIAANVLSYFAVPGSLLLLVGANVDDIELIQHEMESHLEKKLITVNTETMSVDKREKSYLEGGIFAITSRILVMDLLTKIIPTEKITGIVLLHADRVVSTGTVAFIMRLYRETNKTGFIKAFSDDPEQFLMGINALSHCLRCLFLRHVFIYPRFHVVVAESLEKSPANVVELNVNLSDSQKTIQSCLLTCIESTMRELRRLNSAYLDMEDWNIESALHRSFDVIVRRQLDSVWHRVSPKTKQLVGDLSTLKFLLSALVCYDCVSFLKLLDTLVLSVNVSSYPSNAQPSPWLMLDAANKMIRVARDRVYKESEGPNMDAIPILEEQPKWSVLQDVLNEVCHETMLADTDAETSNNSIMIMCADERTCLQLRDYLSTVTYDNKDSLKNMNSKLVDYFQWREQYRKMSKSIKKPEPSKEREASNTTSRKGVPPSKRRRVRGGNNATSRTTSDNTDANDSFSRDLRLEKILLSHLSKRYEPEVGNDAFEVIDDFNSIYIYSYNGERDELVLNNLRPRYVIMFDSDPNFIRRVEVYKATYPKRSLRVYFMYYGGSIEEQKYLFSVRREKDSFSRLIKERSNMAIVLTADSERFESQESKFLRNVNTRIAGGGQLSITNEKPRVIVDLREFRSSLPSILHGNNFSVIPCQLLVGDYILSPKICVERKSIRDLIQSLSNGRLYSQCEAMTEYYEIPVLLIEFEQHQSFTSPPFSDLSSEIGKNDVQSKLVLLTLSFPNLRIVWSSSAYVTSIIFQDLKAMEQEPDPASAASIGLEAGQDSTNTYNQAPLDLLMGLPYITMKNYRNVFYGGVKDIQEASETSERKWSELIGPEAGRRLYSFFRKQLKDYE
B2: Uncharacterized protein C1322.02 (Schizosaccharomyces pombe (strain ATCC 38366 / 972)), O94542 (parent)
chain: B1 chain
partner: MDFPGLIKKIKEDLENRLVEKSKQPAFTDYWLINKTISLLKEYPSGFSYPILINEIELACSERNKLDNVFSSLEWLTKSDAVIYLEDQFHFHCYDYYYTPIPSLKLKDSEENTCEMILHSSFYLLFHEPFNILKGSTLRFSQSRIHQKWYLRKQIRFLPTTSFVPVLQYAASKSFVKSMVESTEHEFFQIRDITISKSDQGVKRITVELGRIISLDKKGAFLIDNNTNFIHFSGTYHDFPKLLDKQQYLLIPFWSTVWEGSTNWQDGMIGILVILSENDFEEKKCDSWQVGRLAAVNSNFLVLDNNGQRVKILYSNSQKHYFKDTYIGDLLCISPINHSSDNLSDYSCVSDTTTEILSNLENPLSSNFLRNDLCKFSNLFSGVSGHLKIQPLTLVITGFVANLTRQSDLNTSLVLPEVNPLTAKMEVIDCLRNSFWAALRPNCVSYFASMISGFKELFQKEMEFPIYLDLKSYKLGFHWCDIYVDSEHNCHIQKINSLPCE

Variants of: B1
Settings: with rad16_schpo rad16, P36617

| Variant | effect of a mutation on the interaction |
| --- | --- |
| MIESKGETAPSLNLNDVNVEENDAAQSFAEKVQRFRYQMKVHAAPRQKTLHSFLKKDNANIHDFTKVEKPHIRSSKSKVSYNSITSRVTKYFEEKNNSVDQLHSESLTPLSFGHTIPKKKPLLMTASVSEDSRVRVSKRQFKSKVVHPEIAISIDKRHKPKFPLSDELMNVAPGFHHSNIGCQITPYLWISSFRTNVYYLIGNEGDLLSQQVPSISGELNMLRGVCTRIDDDNRYDIEQAGSCFGMSVFPTSDSGEESFTTLESDPIVNCEHDEKKVADNLLVPQVMCSSNISTFFRSPGGKKLYHYLWKNSNALRISSNDLLEILLKHGVYVSLDTLHSWLQERNVNFEK [A155D;E172A] | disrupting interaction strength |

Variants of: B2
Settings: with cdc24_schpo cdc24, O75004

| Variant | effect of a mutation on the interaction |
| --- | --- |
| MIESKGETAPSLNLNDVNVEENDAAQSFAEKVQRFRYQMKVHAAPRQKTLHSFLKKDNANIHDFTKVEKPHIRSSKSKVSYNSITSRVTKYFEEKNNSVDQLHSESLTPLSFGHTIPKKKPLLMTASVSEDSRVRVSKRQFKSKVVHPEIAISIAKRHKPKFPLSDELMNVEPGFHHSNIGCQITPYLWISSFRTNVYYLIGNEGDLLSQQVPSISGELNMLRGVCTRIDDDNRYDIEQAGSCFGMSVFPTSDSGEESFTTLESDPIVNCEHDEKKVADNLLVPQVMCAANASTAARSPGGKKLYHYLWKNSNALRISSNDLLEILLKHGVYVSLDTLHSWLQERNVNFEK [S289A;S290A;I292A;F295A;F296A] | decreasing interaction strength |
